We go through one molecule from US20210009673A1, “METHODS FOR REGULATING BREAST CANCERS” (priority 2018, published 2021).

Holding throughout (type): cell-based, human
Experiment [1] has as its system β-catenin. Briefly: β-catenin import into nuclei of HUVS cells (Western blot of nuclear extracts). As to the method: FIG. 13: FIG. 13 illustrates: (A) human umbilical vein stromal cells not stimulated or stimulated for 60 minutes with 1, 10, 25, 50, 100 and 200 ng/ml of PTN were used to isolate their nuclei and prepare lysates that were analyzed in Western blots probed with anti-β-catenin antibodies (upper panel) and anti-Orc-2 antibodies (lower panel). In (B), human umbilical vein stromal cells not stimulated or stimulated with 100 ng/ml of PTN for 5, 15, 30, 60 minutes were used to isolate their nuclei and prepare lysates that were analyzed in Western blots probed with anti-β-catenin antibodies (upper panel) and anti-Orc-2 antibodies (lower panel).
Cells at confluence were washed with PBS ×2 and incubated for 10 minutes in a lysis buffer containing 100 mM HEPES pH 7.9, 100 mM KCl, […], 1 mM DTT, Complete EDTA-free Protease Inhibitor Cocktail (Roche, Indianapolis, Ind.) and 0.04% IGEPAL (Sigma-Aldrich Co. Ltd, Poole, Dorset, UK). […] Samples were centrifuged and the supernatant nuclear extract was collected and analyzed in Western-blots as described below. […] It was detected with anti-Orc2 antibodies; tubulin was used to mark cytosolic fractions and detected with anti-tubulin antibodies. Samples of the nuclear fractions were used only if tubulin was not detected. […]
Background: Immunoblotting shows a protein as a band on a membrane.

The subject of experiment [2] is β-catenin. Briefly: ubiquitination of β-catenin in HUVS cells (Rad23 capture). The note with it: 15 and 30 minutes after stimulation with PTN. As to the method:
FIG. 12: FIG. 12 illustrates: human umbilical vein stromal cells not stimulated (lane 1) or stimulated with 50 ng/ml of PTN for 15 (lane 2), or 30 minutes (lane 3) were used to prepare cell lysates that were incubated with Rad23-conjugated agarose beads to pull-down ubiquitinated proteins and analyzed in Western-blots probed with anti-β-catenin antibodies (upper panel) and reprobed with anti-ubiquitin antibodies (lower panel). Cells pre-incubated with LY294002 were stimulated with PTN for 15 minutes (lane 4). Cells pre-incubated with lactacystin were stimulated with PTN for 15 minutes (lane 5).
Human umbilical vein stromal cells were lysed in a buffer prepared with 50 mM Tris, pH 7.2, 150 mM NaCl pH 7.5, 1% NP40, 0.25% sodium deoxicholate, Complete EDTA-free Protease Inhibitor Cocktail and 2 mM sodium orthovanadate. […] The beads were washed 4 times with lysis buffer and analyzed using Western blots.
β-catenin is rapidly degraded through the ubiquitin proteasome proteolytic pathway, thereby setting steady state levels of β-catenin by balancing its degradation with new synthesis of this key regulatory protein. […] Proteins captured with Rad23 Sepharose were eluted and analyzed in Western blots probed with anti-β-catenin antibodies (FIG. 12, upper panel) and the blots were reprobed with anti-ubiquitin antibodies (FIG. 12, lower panel). […]

Another experiment has as its system Src. Briefly: phospho-Src tyrosine 416 Western blot in PTN-stimulated U87MG cells. The following applies: 50 ng PTN/ml for 5, 10, 15 minutes.

B1: pleiotrophin (protein, UniProt P21246 33-168, looked up)
Pleiotrophin: GKKEKPEKKVKKSDCGEWQWSVCVPTSGDCGLGTREGTRTGAECKQTMKTQRCKIPCNWKKQFGAECKYQFQAWGECDLNTALKTRTGSLKRALHNAECQKTVTISKPCGKLTKPKPQAESKKKKKEGKKQEKMLD
With B1, the β-catenin in nuclei entry in the experiment with β-catenin [1] (1-200 ng/ml PTN, 5-60 minutes) is “concentration and time-dependent increase”. The “PTN concentration at which increase in nuclear β-catenin was seen” value in the experiment on β-catenin [1] (60 minutes) is 10 ng/mL. Moreover, in the experiment with β-catenin [2], the “ubiquitinated β-catenin” value was “decreased sharply”. For the same molecule, the “tyrosine phosphorylation of Src tyrosine 416” value with Src is “not increased”.
